Data on two molecules can be found in patent US20100310573A1 (Kyowa Kirin, published 2010).

Assay [1] has as its target T1, recombinant human CD4 (catalogue number: 514-CD/CF, manufactured by R&D Systems) (human, UniProt P01730 26-390).
T1 construct: Bought protein (R&D Systems); also called recombinant CD4
Briefly: SPR, Biacore T100; antibody captured on anti-human IgG chip, recombinant human CD4 flowed; 1:1 binding model. The protocol:
(§1) In order to kinetically analyze the binding activity of anti-CD4 chimeric antibodies KM4045 to KM4049, 6G5-1 and 6G5-P to recombinant human CD4, the binding activity was measured by surface plasmon resonance method (SPR). All of the following manipulations were carried out using a Biacore T100 (manufactured by GE Healthcare Bio-Sciences). The anti-human IgG antibody was immobilized on a CM5 sensor chip (manufactured by GE Healthcare Bio-Sciences) by an amine coupling method using a Human Antibody Capture Kit (manufactured by GE Healthcare Bio-Sciences) in accordance with the protocols attached thereto. An assay sample (anti-CD4 chimeric antibodies KM4045 to KM4049) was added to be captured on the anti-human IgG antibody-immobilized chip to give 100 RU (resonance unit). Thereafter, the recombinant human CD4 (manufactured by R&D) diluted from 2500 ng/mL in five steps was allowed to run at a flow rate of 30 μL/min onto the chip, and the sensorgram corresponding to each concentration was obtained. The analysis was carried out in the 1:1 binding model using an analysis software attached to the apparatus, Biacore T100 Evaluation software (manufactured by Biacore), thereby calculating an association rate constant ka and a dissociation rate constant kd of respective antibodies for human CD4.
As a result, an association rate constant ka, a dissociation rate constant kd, and a dissociation constant KD (kd/ka) of individual antibodies thus obtained are given in Table 5.
For orientation: Surface plasmon resonance follows binding to a sensor surface in real time, without labels.

Assay [2] deals with T1, recombinant human CD4 (catalogue …). The assay is described as follows: SPR, Biacore T100; antibody captured on anti-human IgG chip, recombinant human CD4 flowed; 1:1 binding model; kd beyond the maker's measurable limit. The method, then:
as §1, with “CD4. […]” for “CD4.”

The target is the same in assay [3]. The assay is described as follows: SPR, Biacore T100; antibody captured on anti-human IgG chip, recombinant human CD4 flowed; 1:1 binding model; value beyond the maker's measurable limit (1 × 10^-5). The method, then:
as §1, with “CD4. […]” for “CD4.”

For assay [4] the target is unchanged. The assay is described as follows: SPR, Biacore T100; antibody captured on anti-human IgG chip, recombinant human CD4 flowed; 1:1 binding model. The protocol:
as §1
The measurement of a binding activity was carried out according to the method described in Example 7(2). The association rate constant ka, the dissociation rate constant kd and the dissociation constant KD (kd/ka) of respective antibodies thus obtained are shown in Table 6.
This is another data set of the same source.

The target is the same in assay [5]. Briefly: SPR, Biacore T100; summary sentence to Table 6.
The target is the same in assay [6]. The assay is described as follows: Biacore T100.

Changes are numbered by the printed parent chain. Like-named read-outs stand apart in the source and are kept apart here.

B1: anti-CD4 chimeric antibody KM4045 (antibody, V domains shown)
VH: EVQLVESGGGLVQPGRSMKLSCAASGFTFSNYGMAWVRQAPTKGLEWVATISYDGSITYYRDSVKGRFTISRDHAKSTLYLQMNSLRSEDTATYYCTREEQYSSWYFDFWGPGIMVTVSS
VL: DIVLTQSPALAVSLGQRATISCRASQSVSISSHDLMQWYQQKPGQQPKLLIYDAFNLASGIPVRFSGSGSGTDFTLTIDPVQADDIATYYCQQSKDDPYTFGAGTKLELK
notes: Variable regions of rat KM4065 joined to a '113F type' heavy chain constant region and a human kappa constant region; In the 113F type, part of the human IgG1 Fc is substituted with human IgG3 Fc (US2007/0148165); Expressed in FUT8 knockout CHO cells (0% fucose)
Usually kon stands for a measure of how fast the partners come together. One may read the Kd as a measure of binding affinity in units of concentration. As usually defined, the koff is the rate constant with which the complex falls apart. As to B1, the figures for the kon in assay [1] and in assay [4] were 360000 M⁻¹ s⁻¹ and 541000 M⁻¹ s⁻¹, respectively. For the same molecule, the Kd was ≤ 0.0824 pM in assay [2] and < 18.4 pM in assay [4]. The koff in assay [3] and in assay [4] was < 1e-05 s⁻¹ throughout.

B2: anti-CD4 humanized antibody HV4LV6 (antibody, V domains shown)
VH: B1 VH with K19R, T42G, H74N, A75S, S77N, S88A, P112Q, M115L
VL: DIQLTQSPSSLSVSLGDRATITCRASQSVSISSHDLMQWYQQKPGKQPKLLIYDAFNLASGIPSRFSGSGSGTDFTLTISSVQPEDFATYYCQQSKDDPYTFGQGTKLEIK
notes: Expressed from the humanized antibody expression vector pKANTEX93
For B2, in assay [5], the Kd is ≤ 100 pM. Further, in assay [4], the Kd was < 24.8 pM, the koff is < 1e-05 s⁻¹ and the kon came to 403000 M⁻¹ s⁻¹. In addition, in assay [6], the “binding activity relative to the anti-CD4 chimeric antibody KM4045” value was 0.5 fold of KM4045.
